Experimental data: paper PMC5951847, “Substrate sequence selectivity of APOBEC3A implicates intra-DNA interactions”

How the values were obtained:
[1] = biological target: T1, A3A(E72A) (Homo sapiens, UniProt P31941 1-199, E72A); test: fluorescence anisotropy; pH 6.0; 50 mM MES pH 6.0, 100 mM NaCl, 0.5 mM TCEP, room temperature overnight, 10 nM TAMRA-oligo; competition with 300 nM A3A(E72A); pH series: acetate 4.0-5.0, MES 5.5-6.5, HEPES 7.0-8.0, Tris 8.5-9.0; conditions: protein: recombinant, tags: His6-SUMO removed by Ulp1 (untagged)
T1 sequence (P31941 whole entry E72A): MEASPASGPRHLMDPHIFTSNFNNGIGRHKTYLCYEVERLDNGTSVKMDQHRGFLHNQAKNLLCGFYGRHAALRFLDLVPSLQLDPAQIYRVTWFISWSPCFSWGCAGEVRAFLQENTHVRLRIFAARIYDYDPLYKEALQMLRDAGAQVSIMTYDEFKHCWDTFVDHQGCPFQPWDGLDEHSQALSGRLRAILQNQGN

[2] = biological target: T1, A3A(E72A); test: competition; vs TAMRA-3A-TTCA-6A; 50 mM MES pH 6.0, 100 mM NaCl, 0.5 mM TCEP, room temperature overnight, 10 nM TAMRA-oligo; competition with 300 nM A3A(E72A); pH series: acetate 4.0-5.0, MES 5.5-6.5, HEPES 7.0-8.0, Tris 8.5-9.0; conditions: protein: recombinant; tags: His6-SUMO removed by Ulp1 (untagged); label: unlabeled

## GCCAUCUAUCGAUGGG (structured_RNA) [SDHB hairpin RNA (UC in loop)]
[1]; label: TAMRA (5'), hairpin
  Kd: 37 nM

## TTTTTCTTTTTT (ssDNA) [Poly T-C (5T-C-6T)]
[1]; label: 5' TAMRA
  Kd: 35 ± 2 nM

## ATTCA (ssDNA) [1A-TTCA]
[2]
  binding result: no binding

## AAACTCCAAAAA (ssDNA) [Poly A-CTCC (3A-CTCC-5A)]
[1]; label: 5' TAMRA
  Kd: 101 ± 2 nM

## TTCAA (ssDNA) [TTCA-1A]
[2]
  binding result: no binding

## AAAATCTAAAAA (ssDNA) [Poly A-ATCT (3A-ATCT-5A)]
[1]; label: 5' TAMRA
  Kd: 209 ± 5 nM

## AAAACCAAAAAA (ssDNA) [Poly A-CC (4A-CC-6A)]
[1]; label: 5' TAMRA
  Kd: 250 ± 14 nM

## AAACTCAAAAAA (ssDNA) [Poly A-CTCA (3A-CTCA-5A)]
[1]; label: 5' TAMRA
  Kd: 85 ± 1 nM

## AAATTCTAAAAA (ssDNA) [Poly A-TTCT (3A-TTCT-5A)]
[1]; label: 5' TAMRA
  Kd: 127 ± 2 nM

## AAAATCGAAAAA (ssDNA) [Poly A-ATCG (3A-ATCG-5A)]
[1]; label: 5' TAMRA
  Kd: 154 ± 2 nM

## TTTTTTTTTTTT (ssDNA) [Poly T (12 T)]
[1]; label: 5' TAMRA
  Kd: 748 ± 44 nM

## AAAATCCAAAAA (ssDNA) [Poly A-ATCC (3A-ATCC-5A)]
[1]; label: 5' TAMRA
  Kd: 163 ± 3 nM

## AAACTCTAAAAA (ssDNA) [Poly A-CTCT (3A-CTCT-5A)]
[1]; label: 5' TAMRA
  Kd: 122 ± 2 nM

## AAAATCAAAAAA (ssDNA) [Poly A-ATCA (3A-ATCA-5A)]
[1]; label: 5' TAMRA
  Kd: 145 ± 2 nM

## AAAATCAAAAAA (ssDNA) [Poly A-TC (4A-TC-6A)]
[1]; label: 5' TAMRA
  Kd: 143 ± 4 nM

## CCCCCCCCCCCC (ssDNA) [Poly C (12 C)]
[1]; label: 5' TAMRA
  Kd: 1570 ± 117 nM

## AAATTCCAAAAA (ssDNA) [Poly A-TTCC (3A-TTCC-5A)]
[1]; label: 5' TAMRA
  Kd: 114 ± 2 nM

## AAAGTCCAAAAA (ssDNA) [Poly A-GTCC (3A-GTCC-5A)]
[1]; label: 5' TAMRA
  Kd: 152 ± 2 nM

## AAAGTCAAAAAA (ssDNA) [Poly A-GTCA (3A-GTCA-5A)]
[1]; label: 5' TAMRA
  Kd: 150 ± 3 nM

## AAAGTCGAAAAA (ssDNA) [Poly A-GTCG (3A-GTCG-5A)]
[1]; label: 5' TAMRA
  Kd: 150 ± 3 nM

## AAATTCAAAAAA (ssDNA) [Poly A-TTCA (3A-TTCA-5A)]
[1]; label: 5' TAMRA
  Kd: 90 ± 1 nM

## GCCAUCUAAAGAUGGG (structured_RNA) [SDHB hairpin RNA, loop UC to AA]
[1]; label: TAMRA (5'), hairpin
  Kd: 202 nM

## AAAGTCTAAAAA (ssDNA) [Poly A-GTCT (3A-GTCT-5A)]
[1]; label: 5' TAMRA
  Kd: 218 ± 7 nM
